Measurements: patent US20190382475

Assays:
Experiment in all cases: LC-UV-ESI-MS of purified Fab after co-expression of two heavy and two light chains in HEK293T (chain competition); competing chains not named
[1] = target: anti c-Kit Fab heavy chain Q39K/K147D/S165R
[2] = target: anti c-Kit Fab heavy chain Q39K/K147/S165
[3] = target: anti c-Kit Fab heavy chain Q39/K147/S165 (wild type)
[4] = target: anti c-Kit Fab heavy chain Q39/K147/S165D
[5] = target: anti c-Kit Fab heavy chain Q39/K147D/S165
[6] = target: anti c-Kit Fab heavy chain Q39D/K147/S165
[7] = target: anti c-Kit Fab heavy chain Q39D/K147/S165D
[8] = target: anti c-Kit Fab heavy chain Q39K/K147/S165R
[9] = target: anti c-Kit Fab heavy chain Q39/K147/S165R
[10] = target: anti c-Kit Fab heavy chain Q39K/K147D/S165
[11] = target: anti c-Kit Fab heavy chain Q39/K147D/S165R

B1: anti c-Kit Fab light chain Q38D/Q124K/K169D (protein)
chain: DIQMTQSPSSLSASVGDRVTITCRASQSISSYLNWYQDKPGKAPKLLIYYTSRLQSGVPSRFSGSGSGTDFTLTISSLQPEDFATYYCQQGRRLWSFGGGTKVEIKRTVAAPSVFIFPPSDEKLKSGTASVVCLLNNFYPREAKVQWKVDNALQSGNSQESVTEQDSDDSTYSLSSTLTLSKADYEKHKVYACEVTHQGLSSPVTKSFNRGEC
B1 showed a Correct pairing (%) [1] of 100%.

B2: anti c-Kit Fab light chain Q38D/Q124/K169 (protein)
chain: DIQMTQSPSSLSASVGDRVTITCRASQSISSYLNWYQDKPGKAPKLLIYYTSRLQSGVPSRFSGSGSGTDFTLTISSLQPEDFATYYCQQGRRLWSFGGGTKVEIKRTVAAPSVFIFPPSDEQLKSGTASVVCLLNNFYPREAKVQWKVDNALQSGNSQESVTEQDSKDSTYSLSSTLTLSKADYEKHKVYACEVTHQGLSSPVTKSFNRGEC
B2 gave a Correct pairing (%) [2] of 74%.

B3: anti c-Kit Fab light chain Q38/Q124D/K169 (protein)
chain: DIQMTQSPSSLSASVGDRVTITCRASQSISSYLNWYQQKPGKAPKLLIYYTSRLQSGVPSRFSGSGSGTDFTLTISSLQPEDFATYYCQQGRRLWSFGGGTKVEIKRTVAAPSVFIFPPSDEDLKSGTASVVCLLNNFYPREAKVQWKVDNALQSGNSQESVTEQDSKDSTYSLSSTLTLSKADYEKHKVYACEVTHQGLSSPVTKSFNRGEC
For B3, the Correct pairing (%) [3] was 91% and the Correct pairing (%) [4] was 88%.

B4: anti c-Kit Fab light chain Q38/Q124K/K169 (protein)
chain: DIQMTQSPSSLSASVGDRVTITCRASQSISSYLNWYQQKPGKAPKLLIYYTSRLQSGVPSRFSGSGSGTDFTLTISSLQPEDFATYYCQQGRRLWSFGGGTKVEIKRTVAAPSVFIFPPSDEKLKSGTASVVCLLNNFYPREAKVQWKVDNALQSGNSQESVTEQDSKDSTYSLSSTLTLSKADYEKHKVYACEVTHQGLSSPVTKSFNRGEC
Protein B4 has a Correct pairing (%) [5] of 91%.

B5: anti c-Kit Fab light chain Q38/Q124/K169 (wild type) (protein)
chain: DIQMTQSPSSLSASVGDRVTITCRASQSISSYLNWYQQKPGKAPKLLIYYTSRLQSGVPSRFSGSGSGTDFTLTISSLQPEDFATYYCQQGRRLWSFGGGTKVEIKRTVAAPSVFIFPPSDEQLKSGTASVVCLLNNFYPREAKVQWKVDNALQSGNSQESVTEQDSKDSTYSLSSTLTLSKADYEKHKVYACEVTHQGLSSPVTKSFNRGEC
In the case of B5, the Correct pairing (%) [3] is reported as 63% and the Correct pairing (%) [4] is reported as 87%.

B6: anti c-Kit Fab light chain Q38K/Q124D/K169 (protein)
chain: DIQMTQSPSSLSASVGDRVTITCRASQSISSYLNWYQKKPGKAPKLLIYYTSRLQSGVPSRFSGSGSGTDFTLTISSLQPEDFATYYCQQGRRLWSFGGGTKVEIKRTVAAPSVFIFPPSDEDLKSGTASVVCLLNNFYPREAKVQWKVDNALQSGNSQESVTEQDSKDSTYSLSSTLTLSKADYEKHKVYACEVTHQGLSSPVTKSFNRGEC
For B6, the Correct pairing (%) [6] was 93% and the Correct pairing (%) [7] was 100%.

B7: anti c-Kit Fab light chain Q38K/Q124/K169 (protein)
chain: DIQMTQSPSSLSASVGDRVTITCRASQSISSYLNWYQKKPGKAPKLLIYYTSRLQSGVPSRFSGSGSGTDFTLTISSLQPEDFATYYCQQGRRLWSFGGGTKVEIKRTVAAPSVFIFPPSDEQLKSGTASVVCLLNNFYPREAKVQWKVDNALQSGNSQESVTEQDSKDSTYSLSSTLTLSKADYEKHKVYACEVTHQGLSSPVTKSFNRGEC
With B7 the Correct pairing (%) [6] was 95% and the Correct pairing (%) [7] was 95%.

B8: anti c-Kit Fab light chain Q38D/Q124/K169D (protein)
chain: DIQMTQSPSSLSASVGDRVTITCRASQSISSYLNWYQDKPGKAPKLLIYYTSRLQSGVPSRFSGSGSGTDFTLTISSLQPEDFATYYCQQGRRLWSFGGGTKVEIKRTVAAPSVFIFPPSDEQLKSGTASVVCLLNNFYPREAKVQWKVDNALQSGNSQESVTEQDSDDSTYSLSSTLTLSKADYEKHKVYACEVTHQGLSSPVTKSFNRGEC
B8 showed a Correct pairing (%) [8] of 75%.

B9: anti c-Kit Fab light chain Q38/Q124/K169D (protein)
chain: DIQMTQSPSSLSASVGDRVTITCRASQSISSYLNWYQQKPGKAPKLLIYYTSRLQSGVPSRFSGSGSGTDFTLTISSLQPEDFATYYCQQGRRLWSFGGGTKVEIKRTVAAPSVFIFPPSDEQLKSGTASVVCLLNNFYPREAKVQWKVDNALQSGNSQESVTEQDSDDSTYSLSSTLTLSKADYEKHKVYACEVTHQGLSSPVTKSFNRGEC
In the case of B9, the Correct pairing (%) [9] is reported as 68%.

B10: anti c-Kit Fab light chain Q38D/Q124K/K169 (protein)
chain: DIQMTQSPSSLSASVGDRVTITCRASQSISSYLNWYQDKPGKAPKLLIYYTSRLQSGVPSRFSGSGSGTDFTLTISSLQPEDFATYYCQQGRRLWSFGGGTKVEIKRTVAAPSVFIFPPSDEKLKSGTASVVCLLNNFYPREAKVQWKVDNALQSGNSQESVTEQDSKDSTYSLSSTLTLSKADYEKHKVYACEVTHQGLSSPVTKSFNRGEC
Work on B10 yielded a Correct pairing (%) [10] of 95%.

B11: anti c-Kit Fab light chain Q38/Q124K/K169D (protein)
chain: DIQMTQSPSSLSASVGDRVTITCRASQSISSYLNWYQQKPGKAPKLLIYYTSRLQSGVPSRFSGSGSGTDFTLTISSLQPEDFATYYCQQGRRLWSFGGGTKVEIKRTVAAPSVFIFPPSDEKLKSGTASVVCLLNNFYPREAKVQWKVDNALQSGNSQESVTEQDSDDSTYSLSSTLTLSKADYEKHKVYACEVTHQGLSSPVTKSFNRGEC
In the case of B11, the Correct pairing (%) [11] is reported as 90%.
